Laboratory results from publication PMC8141644 (2021).
Read-outs that look alike come from different tables or passages of the source.

Legend:
EGFR-ECD [1] = biological target: T1, EGFR-ECD (UniProt P00533 25-645); assay: BLI
EGFR-ECD [2] = biological target: T1, EGFR-ECD; assay: BLI; remark: listed apart in the source

Kd (EGFR-ECD [1]) | Kd (EGFR-ECD [2]) | Binder
3.7 nM | – | dFEB4-1 (antibody, V domains shown) VH: AVTLDESGGGLQTPGGALSLVCKASGFTFSSHGMLWVRQAPGKGLEFVAGISTDGSSTSYGAPVKGRATISRDNGQSTVRLQLNNLRAEDTGTYYCAKDAYRCRNCAEDIDAWGHGTEVIVSS VL: ALTQPSSVSANPGETVKITCSGGGYDGSYYYGWYQQKSPGSAPVTVIYDNTNRPSNIPSRFSGSLSGSTNTLTITGVQAEDEAVYFCGGYDRSGGIFGGGTTLTVL
– | 29.3 nM | FEB4 (antibody, V domains shown) VH: AVTLDESGGGLQTPGGALSLVCKASGFTFSSHGMLWVRQAPGKGLEFVAGISTDGSSTSYGAPVKGRATISRDNGQSTVRLQLNNLRAEDTGTYYCAKDAYRCRNCAEDIDAWGHGTEVIVSS VL: ALTQPSSVSANPGETVKITCSGGYSDDGSYYYYGWFQQKSPGSAPVTVIYDNTNRPSNIPSRFSGSTSGSTSTLTITGVRAEDEAVYYCGSIDTGYAGIFGAGTTLTVL
